The labels stand for the following.
T1: Abp1 SH3 (ABP1_YEAST), P15891
T1 chain: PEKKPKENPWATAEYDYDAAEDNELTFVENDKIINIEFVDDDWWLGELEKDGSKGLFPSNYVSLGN

B1: YPL085W 911-924 (peptide)
chain: QPPTGILPLAPLRP
B2: YLR287C-A 17-30 (peptide)
chain: QTPKVEKTEKPKKP
B3: YHR073W 189-202 (peptide)
chain: QSMISTRSTPPARP
B4: YPR179C 274-286 (peptide)
chain: RDRLGTLPPDLRP
B5: YDR414C 52-64 (peptide)
chain: QVILTRVPHDIRP
B6: YPR175W 148-161 (peptide)
chain: QPTERDEYKQPFKP
B7: YHL007C 201-213 (peptide)
chain: RATPVSTPVISKP
B8: YHL004W 115-128 (peptide)
chain: QSSTTTAAATPTKP
B9: YOR196C 186-199 (peptide)
chain: RFSSVKTNRTPSKP
B10: YDR434W 319-332 (peptide)
chain: QWGVIIINKMPLKP
B11: YMR302C 753-766 (peptide)
chain: RDRGVLQEIRPAKP
B12: YGR116W 858-871 (peptide)
chain: QNSERAAQEFPNKP
B13: YMR201C 33-45 (peptide)
chain: RIESRNEPLKTRP
B14: YLR353W 192-205 (peptide)
chain: RGNDESKNGTPPRP
B15: YOR178C 4-16 (peptide)
chain: QTATTLSPAKARP
B16: YCL008C 172-184 (peptide)
chain: QQEQNTPPLPPKP
B17: YHR089C 121-134 (peptide)
chain: RFLPKPKVVGPPKP
B18: YER172C 459-471 (peptide)
chain: QYDEIHIPAPSKP
B19: YHL009W-B 360-372 (peptide)
chain: RELGLTRPISQKP
B20: YLL057C 379-391 (peptide)
chain: RHAFRITPQAERP
B21: YLL029W 24-37 (peptide)
chain: RGTSASHSPRPFRP
B22: YDR284C 245-258 (peptide)
chain: RIFPPIDDPLPFKP
B23: YHR196W 194-206 (peptide)
chain: QMVYIVDPSKRRP
B24: YPL032C 537-550 (peptide)
chain: QRFNNSNNSIPRKP
B25: YGL099W 127-140 (peptide)
chain: QRALAKDLIVPRRP
B26: YNL086W 58-71 (peptide)
chain: REGQVLYDPEPFKP
B27: YGR109W-B 1008-1020 (peptide)
chain: RAVYTITPETSRP
B28: YBR108W 772-784 (peptide)
chain: QSTKKAPPPVVKP
B29: YDL030W 480-493 (peptide)
chain: QSQLTSIAAVPPKP
B30: YPL125W 1020-1032 (peptide)
chain: QMFLSIQPQEARP
B31: YDR242W 430-442 (peptide)
chain: RDYYLSFPESERP
B32: YHR064C 433-445 (peptide)
chain: QPVIVNTPHLKKP
B33: YGR084C 80-92 (peptide)
chain: RDPKTREPLQPRP
B34: YDR365C 307-319 (peptide)
chain: RDESSILPKNYRP
B35: YOL040C 61-73 (peptide)
chain: RAAKLAAPENEKP
B36: YNL278W 947-960 (peptide)
chain: QQVPMPILQQPNRP
B37: YLL016W 403-416 (peptide)
chain: QNDLPTGYYEPMKP
B38: YNL169C 143-155 (peptide)
chain: QVNSLTLPIWVRP
B39: YDR171W 23-36 (peptide)
chain: QRGQQGYPRQPQRP
B40: YIL085C 485-497 (peptide)
chain: REYEKEFPGSYKP
B41: YDL036C 175-187 (peptide)
chain: QVHRHEPPVTSRP
B42: YDR122W 674-686 (peptide)
chain: RAVSDFVPGFAKP
B43: YBR073W 34-47 (peptide)
chain: QMQIPKYENKPFKP
B44: YDR422C 627-640 (peptide)
chain: QVEPTLDEELPKRP
B45: YPL042C 7-19 (peptide)
chain: RAQNSYQPMYQRP
B46: YOR264W 128-140 (peptide)
chain: QRKSLRRPTLSKP
B47: YHR030C 429-442 (peptide)
chain: QNLPRHDADFPPRP
B48: YOR023C 518-530 (peptide)
chain: RERLRANPTDKKP
B49: YML007W 308-321 (peptide)
chain: QVSGTRQSPIPKKP
B50: YPL073C 76-89 (peptide)
chain: RFKYSTNRGIPARP
B51: YDR128W 69-82 (peptide)
chain: QVADVQWSPHPAKP
B52: YNL298W 490-503 (peptide)
chain: QSTPQTMRQAPKRP
B53: YGR165W 94-106 (peptide)
chain: RGQSLEHPVTKKP
B54: YIL080W 1034-1046 (peptide)
chain: RAIYTITPETSRP

The target in the test is T1, Abp1 SH3 (ABP1_YEAST), P15891. Briefly: SPOT array.
B1 gave a normalised SPOT signal, Boehringer light units (BLU); mean over the file's lines of this peptide of 63.4.

For B2, the normalised SPOT signal, Boehringer light units (BLU); mean over the file's lines of this peptide amounted to 33.2.

Molecule B3 came in with a normalised SPOT signal, Boehringer light units (BLU); mean over the file's lines of this peptide of 3390.

Turning to B4, the normalised SPOT signal, Boehringer light units (BLU); mean over the file's lines of this peptide was 201.

In the case of B5, the normalised SPOT signal, Boehringer light units (BLU); mean over the file's lines of this peptide turned out to be 116.

B6 returned a normalised SPOT signal, Boehringer light units (BLU); mean over the file's lines of this peptide of 19.8.

Molecule B7 returned a normalised SPOT signal, Boehringer light units (BLU); mean over the file's lines of this peptide of 61.6.

Molecule B8 registered a normalised SPOT signal, Boehringer light units (BLU); mean over the file's lines of this peptide of 160.

In turn, B9 displayed a normalised SPOT signal, Boehringer light units (BLU); mean over the file's lines of this peptide of 159.

For the molecule B10, the normalised SPOT signal, Boehringer light units (BLU); mean over the file's lines of this peptide came to 62.9.

On to B11, for which the normalised SPOT signal, Boehringer light units (BLU); mean over the file's lines of this peptide is 51.

As to B12, the normalised SPOT signal, Boehringer light units (BLU); mean over the file's lines of this peptide is 75.2.

The molecule B13 showed a normalised SPOT signal, Boehringer light units (BLU); mean over the file's lines of this peptide of 196.

B14 came in with a normalised SPOT signal, Boehringer light units (BLU); mean over the file's lines of this peptide of 89.4.

B15 displayed a normalised SPOT signal, Boehringer light units (BLU); mean over the file's lines of this peptide of 122.

Turning to B16, the normalised SPOT signal, Boehringer light units (BLU); mean over the file's lines of this peptide stood at 16.1.

With B17, the normalised SPOT signal, Boehringer light units (BLU); mean over the file's lines of this peptide is 1660.

B18 gave a normalised SPOT signal, Boehringer light units (BLU); mean over the file's lines of this peptide of 40.6.

The molecule B19 came in with a normalised SPOT signal, Boehringer light units (BLU); mean over the file's lines of this peptide of 2940.

B20 had a normalised SPOT signal, Boehringer light units (BLU); mean over the file's lines of this peptide of 555.

B21 showed a normalised SPOT signal, Boehringer light units (BLU); mean over the file's lines of this peptide of 168.

Turning to B22, the normalised SPOT signal, Boehringer light units (BLU); mean over the file's lines of this peptide was 92.4.

In turn, B23 registered a normalised SPOT signal, Boehringer light units (BLU); mean over the file's lines of this peptide of 445.

The molecule B24 registered a normalised SPOT signal, Boehringer light units (BLU); mean over the file's lines of this peptide of 627.

In the case of B25, the normalised SPOT signal, Boehringer light units (BLU); mean over the file's lines of this peptide was 42100.

As to B26, the normalised SPOT signal, Boehringer light units (BLU); mean over the file's lines of this peptide was 72.5.

B27 came in with a normalised SPOT signal, Boehringer light units (BLU); mean over the file's lines of this peptide of 114.

B28: the normalised SPOT signal, Boehringer light units (BLU); mean over the file's lines of this peptide turned out to be 4860.

As for B29, the normalised SPOT signal, Boehringer light units (BLU); mean over the file's lines of this peptide amounted to 92.9.

The molecule B30 showed a normalised SPOT signal, Boehringer light units (BLU); mean over the file's lines of this peptide of 310.

The molecule B31 gave a normalised SPOT signal, Boehringer light units (BLU); mean over the file's lines of this peptide of 41.

The molecule B32 displayed a normalised SPOT signal, Boehringer light units (BLU); mean over the file's lines of this peptide of 83.3.

As for B33, the normalised SPOT signal, Boehringer light units (BLU); mean over the file's lines of this peptide worked out at 297.

The molecule B34 returned a normalised SPOT signal, Boehringer light units (BLU); mean over the file's lines of this peptide of 97.6.

With B35, the normalised SPOT signal, Boehringer light units (BLU); mean over the file's lines of this peptide is 4.4.

The molecule B36 registered a normalised SPOT signal, Boehringer light units (BLU); mean over the file's lines of this peptide of 113.

B37: the normalised SPOT signal, Boehringer light units (BLU); mean over the file's lines of this peptide turned out to be 15.1.

B38: the normalised SPOT signal, Boehringer light units (BLU); mean over the file's lines of this peptide was found to be 215.

With B39, the normalised SPOT signal, Boehringer light units (BLU); mean over the file's lines of this peptide came out at 333.

Consider B40, for which the normalised SPOT signal, Boehringer light units (BLU); mean over the file's lines of this peptide came out at 13.6.

On to B41, for which the normalised SPOT signal, Boehringer light units (BLU); mean over the file's lines of this peptide turned out to be 133.

Regarding B42, the normalised SPOT signal, Boehringer light units (BLU); mean over the file's lines of this peptide came out at 198.

Molecule B43 gave a normalised SPOT signal, Boehringer light units (BLU); mean over the file's lines of this peptide of 316.

B44: the normalised SPOT signal, Boehringer light units (BLU); mean over the file's lines of this peptide is 58.1.

The molecule B45 registered a normalised SPOT signal, Boehringer light units (BLU); mean over the file's lines of this peptide of 696.

With B46, the normalised SPOT signal, Boehringer light units (BLU); mean over the file's lines of this peptide came to 43.

Take B47: the normalised SPOT signal, Boehringer light units (BLU); mean over the file's lines of this peptide was determined as 22.

B48 gave a normalised SPOT signal, Boehringer light units (BLU); mean over the file's lines of this peptide of 303.

B49 registered a normalised SPOT signal, Boehringer light units (BLU); mean over the file's lines of this peptide of 172.

B50 registered a normalised SPOT signal, Boehringer light units (BLU); mean over the file's lines of this peptide of 110.

B51: the normalised SPOT signal, Boehringer light units (BLU); mean over the file's lines of this peptide came to 89.6.

As to B52, the normalised SPOT signal, Boehringer light units (BLU); mean over the file's lines of this peptide was 7180.

Take B53: the normalised SPOT signal, Boehringer light units (BLU); mean over the file's lines of this peptide worked out at 116.

Molecule B54 gave a normalised SPOT signal, Boehringer light units (BLU); mean over the file's lines of this peptide of 49.8.

The values are drawn from publication PMC314469, “Protein Interaction Networks by Proteome Peptide Scanning” (PLoS Biology, 2004).
